Experimental data taken from patent US20070134813A1.

T1: C-reactive protein (human) (UniProt P02741)
T1 sequence (looked up): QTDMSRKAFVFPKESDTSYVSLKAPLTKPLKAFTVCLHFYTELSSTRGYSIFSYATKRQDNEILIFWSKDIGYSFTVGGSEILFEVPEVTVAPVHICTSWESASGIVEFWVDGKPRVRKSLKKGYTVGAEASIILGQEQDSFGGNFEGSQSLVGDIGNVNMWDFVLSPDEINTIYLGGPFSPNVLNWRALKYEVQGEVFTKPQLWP


Columns and labels:
[1] = target: T1, C-reactive protein (human); assay: SPR, Fn 1 mg/mL in the presence of 50 uM 19-mer injected over antibody-captured CRP
[2] = target: T1, C-reactive protein (human); assay: SPR (Biacore X), Fn 1 mg/mL without inhibitor injected over CRP captured on immobilized anti-CRP antibody, 25 C
[3] = target: T1, C-reactive protein (human); assay: SPR, Fn 1 mg/mL in the presence of 50 uM 9-mer injected over antibody-captured CRP
[4] = target: T1, C-reactive protein (human); assay: SPR, Fn 1 mg/mL in the presence of 50 uM 10-mer injected over antibody-captured CRP
[5] = target: T1, C-reactive protein (human); assay: SPR, inhibition of Fn (1 mg/mL) binding to antibody-captured CRP at 50 uM peptide

Row | Molecule | SPR Response (RU) [1] [RU] | SPR Response (RU) [2] [RU] | SPR Response (RU) [3] [RU] | SPR Response (RU) [4] [RU] | % Inhibition [5] [%]
1 | PRCGNPDVA [9-mer (SEQ ID NO.: 16)] |  |  |  |  | 0
2 | NYNFFPRKPK [10-mer (SEQ ID NO.: 12)] |  |  |  |  | 35.6

Other lines, results leading:

Row | SPR Response (RU) [1] [RU] | SPR Response (RU) [2] [RU] | SPR Response (RU) [3] [RU] | SPR Response (RU) [4] [RU] | % Inhibition [5] [%] | Molecule
3 | 76 | 118 | 119 | 76 |  | fibronectin (from UniProt P02751 32-2477)
4 |  |  |  |  | 35.6 | PRCGNPDVANYNFFPRKPK [19-mer (SEQ ID NO.: 11)]
